This is an account of results in patent publication US20200102400A1.

Test [1] deals with FcγRs. As to the kind of experiment: cell-based or functional assay.
For test [2], the target named is FcγRIIIa-V158-Streptavidin (tetrameric) (human) (UniProt P08637).
Test [3] addresses C1q protein from human serum (human) (UniProt P02745). Briefly: FACS, cell display, 10 nM C1q-PE. A general note: Flow cytometry measures light scatter and fluorescence of single cells or particles in a stream.
For test [4] the target is unchanged. As to the kind of experiment: FACS, 10 nM C1q-PE; reference itself.
Test [5] has the same target. Briefly: FACS, spheroplasts, 10 nM C1q-PE, high-salt buffer (FIG. 3C).
Test [6] shares this target. As to the kind of experiment: FACS, spheroplasts, 10 nM C1q-PE.
Test [7] deals with FcγRIIIa-V158-Streptavidin (tetrameric) (human) (UniProt P08637). The source holds these as a separate data set.
In test [8] the target is FcγRIIIa-V158-GST (dimeric FcγRIIIaV158) (human) (UniProt P08637).
Test [9] deals with FcγRIIb-GST (dimeric FcγRIIb) (human) (UniProt P31994).

Like-named read-outs stand apart in the source and are kept apart here.

Sequence of C1q protein from human serum (human) (P02745 23-245, chain 1 of 3): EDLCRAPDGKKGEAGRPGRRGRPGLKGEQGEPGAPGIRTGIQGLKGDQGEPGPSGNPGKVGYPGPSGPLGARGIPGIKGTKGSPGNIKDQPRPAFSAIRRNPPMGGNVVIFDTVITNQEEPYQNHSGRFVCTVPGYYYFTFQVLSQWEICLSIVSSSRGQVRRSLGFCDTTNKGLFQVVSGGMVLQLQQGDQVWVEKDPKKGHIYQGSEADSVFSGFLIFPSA
Sequence of C1q protein from human serum (human) (P02746 28-253, chain 2 of 3, further chain): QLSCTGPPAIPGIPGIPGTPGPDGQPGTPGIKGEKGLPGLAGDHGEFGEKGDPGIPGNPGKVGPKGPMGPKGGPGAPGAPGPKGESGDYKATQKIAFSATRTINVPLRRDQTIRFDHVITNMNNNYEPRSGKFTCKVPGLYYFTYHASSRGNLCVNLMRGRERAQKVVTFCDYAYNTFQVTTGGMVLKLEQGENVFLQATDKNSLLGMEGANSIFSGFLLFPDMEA
Sequence of C1q protein from human serum (human) (P02747 29-245, chain 3 of 3, further chain): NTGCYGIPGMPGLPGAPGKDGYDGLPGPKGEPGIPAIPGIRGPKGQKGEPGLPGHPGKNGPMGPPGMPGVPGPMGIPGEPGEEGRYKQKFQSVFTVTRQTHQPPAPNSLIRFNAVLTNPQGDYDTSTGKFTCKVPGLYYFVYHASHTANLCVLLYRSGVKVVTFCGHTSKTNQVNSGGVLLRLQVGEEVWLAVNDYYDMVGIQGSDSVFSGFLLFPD
Sequence of FcγRIIIa-V158-Streptavidin (tetrameric) (human) (P08637 17-208 F176V): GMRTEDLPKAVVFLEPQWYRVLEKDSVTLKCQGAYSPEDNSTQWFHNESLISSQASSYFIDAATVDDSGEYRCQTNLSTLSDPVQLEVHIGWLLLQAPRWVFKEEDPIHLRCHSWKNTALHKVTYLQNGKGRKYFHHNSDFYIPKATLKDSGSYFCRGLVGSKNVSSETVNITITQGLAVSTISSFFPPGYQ
Sequence of FcγRIIIa-V158-GST (dimeric FcγRIIIaV158) (human) (P08637 17-208 F176V): as above
Sequence of FcγRIIb-GST (dimeric FcγRIIb) (human) (P31994 43-217): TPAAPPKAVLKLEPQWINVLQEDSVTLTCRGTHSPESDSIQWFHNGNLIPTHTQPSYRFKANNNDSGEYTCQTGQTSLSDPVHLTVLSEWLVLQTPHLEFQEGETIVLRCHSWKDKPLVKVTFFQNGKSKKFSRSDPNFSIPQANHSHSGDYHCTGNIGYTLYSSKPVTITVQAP

Take “Rituximab (glycosylated wild-type IgG1) (antibody)”: the ADCC EC50, Raji targets, PBMC in test [1] turned out to be 2.11 nM.
With “wild-type aglycosylated IgG displayed on E. coli spheroplasts (antibody)”, the MFI in test [2] came out at 6.44; in test [3] it was 23.5; in test [5] it was 14.9; in test [6], 54.7; in [7] it was 36.6; in test [8] it was 3.8. This substance also gave an MFI in test [9] of 4.5. Moreover, the Increasing Fold in test [4] worked out at 1 fold.
